According to patent US20150307625A1 (Bayer, published 2015):

T1: dog activated Protein C (dog, UniProt Q28278 43-456)
T1 construct: mature; also called dog aPC; dAPC
T1 sequence (looked up): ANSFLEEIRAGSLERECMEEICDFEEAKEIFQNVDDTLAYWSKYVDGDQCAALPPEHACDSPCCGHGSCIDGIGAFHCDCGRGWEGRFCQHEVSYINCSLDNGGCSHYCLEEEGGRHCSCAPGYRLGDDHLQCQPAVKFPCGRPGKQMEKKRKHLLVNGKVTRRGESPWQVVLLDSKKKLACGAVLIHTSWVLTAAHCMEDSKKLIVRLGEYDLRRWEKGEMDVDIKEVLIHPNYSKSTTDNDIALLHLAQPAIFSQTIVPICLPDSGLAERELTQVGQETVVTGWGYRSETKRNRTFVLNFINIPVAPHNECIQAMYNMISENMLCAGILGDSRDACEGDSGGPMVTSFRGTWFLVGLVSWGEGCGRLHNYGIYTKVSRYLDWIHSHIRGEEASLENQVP

T2: dog Protein C (zymogen) (dog, UniProt Q28278 43-456)
T2 construct: mature; also called dog PC
T2 sequence (looked up): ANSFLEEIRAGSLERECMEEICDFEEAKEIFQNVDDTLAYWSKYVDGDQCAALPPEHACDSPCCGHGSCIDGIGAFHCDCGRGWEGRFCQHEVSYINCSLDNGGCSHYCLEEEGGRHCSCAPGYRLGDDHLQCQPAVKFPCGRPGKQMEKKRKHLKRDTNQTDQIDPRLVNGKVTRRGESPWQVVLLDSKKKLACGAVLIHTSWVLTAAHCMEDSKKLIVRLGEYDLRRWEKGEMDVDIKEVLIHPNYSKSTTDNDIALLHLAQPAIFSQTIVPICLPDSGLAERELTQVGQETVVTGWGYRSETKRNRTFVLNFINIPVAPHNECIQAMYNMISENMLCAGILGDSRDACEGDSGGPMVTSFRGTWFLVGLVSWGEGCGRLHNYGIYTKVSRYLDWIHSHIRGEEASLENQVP

T3: mouse Protein C (zymogen) (mouse, UniProt P33587 42-460)
T3 construct: mature; also called mouse PC
T3 sequence (looked up): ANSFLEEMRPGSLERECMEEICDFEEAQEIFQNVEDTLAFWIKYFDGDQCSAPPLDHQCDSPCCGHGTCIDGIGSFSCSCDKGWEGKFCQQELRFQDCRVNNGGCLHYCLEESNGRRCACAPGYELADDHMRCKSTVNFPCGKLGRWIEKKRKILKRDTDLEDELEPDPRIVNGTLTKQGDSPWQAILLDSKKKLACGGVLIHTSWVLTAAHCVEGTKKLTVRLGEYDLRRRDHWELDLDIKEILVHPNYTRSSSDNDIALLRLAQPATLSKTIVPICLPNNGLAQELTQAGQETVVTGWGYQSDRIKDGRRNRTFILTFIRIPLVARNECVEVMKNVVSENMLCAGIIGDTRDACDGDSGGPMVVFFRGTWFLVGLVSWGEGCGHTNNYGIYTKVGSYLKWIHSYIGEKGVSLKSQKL

B1: C22J13 hIgG1 (antibody, V domains shown)
VH: EVQLLESGGGLVQPGGSLRLSCAASGFTFSSNYMSWVRQAPGKGLEWVAVISYDGSNKYYADSVKGRFTISRDNSKNTLYLQMNSLRAEDTAMYYCALTGRSGWMRFPNWFDPWGQGTLVTVTS
VL: QSVLTQPPSASGTPGQRVTISCSGSDSNIGSNAVNWYQQLPGTAPKLLIYDNNKRPSGVPDRFSGSKSGTSASLAISGLRSEDEADYYCSSYTSSNTVVFGGGTKLTVLG
B2: C7A23 hIgG1 (antibody, V domains shown)
VH: EVQLLESGGGLVQPGGSLRLSCAASGFTFGNHWMTWVRQAPGKGLEWVSGVSWNGSRTHYADSVKGRFTISRDNSKNTLYLQMNSLRAEDTAVYYCALTGRSGWMRFPNWFDPWGQGTLVTVTS
VL: QSVLTQPPSASGTPGQRVTISCSGSSSNIGNNYVSWYQQLPGTAPKLLIYRNNQRPSGVPDRFSGSKSGTSASLAISGLRSEDEADYYCQSYDSDLSGPYVLFGGGTKLTVLG
notes: also called C7A23-IgG
B3: C7I7 Fab (Fab, V domains shown)
VH: EVQLLESGGGLVQPGGSLRLSCAASGFTFGNHWMTWVRQAPGKGLEWVSGVSWNGSRTHYADSVKGRFTISRDNSKNTLYLQMNSLRAEDTAVYYCALTGRSGWMRFPNWFDPWGQGTLVTVTS
VL: QSVLTQPPSASGTPGQRVTISCTGSSSNIGAGYDVHWYQQLPGTAPKLLIYGNSNRPSGVPDRFSGSKSGTSASLAISGLRSEDEAAYYCSSYVGSDLVVFGGGTKLTVLG
notes: Human Fab (lambda) from a phage library, expressed in E. coli; also called C717
B4: C25K23 Fab (Fab, V domains shown)
VH: EVQLLESGGGLVQPGGSLRLSCAASGFTFSSYWMSWVRQAPGKGLEWVSGVSWNGSRTHYADSVKGRFTISRDNSKNTLYLQMNSLRAEDTAVYYCALTGRSGWMRFPNWFDPWGQGTLVTVTS
VL: QSVLTQPPSASGTPGQRVTISCTGSSSNIGAAYDVHWYQQLPGTAPKLLIYGNNKRPSGVPDRFSGSKSGTSASLAISGLRSEDEADYYCQSYDSSLSGSVFGGGTKLTVLG
notes: Human Fab (lambda) from a phage library, expressed in E. coli; also called Fab C25K23
B5: C25K23 IgG1 (antibody, V domains shown)
VH: EVQLLESGGGLVQPGGSLRLSCAASGFTFSSYWMSWVRQAPGKGLEWVSGVSWNGSRTHYADSVKGRFTISRDNSKNTLYLQMNSLRAEDTAVYYCALTGRSGWMRFPNWFDPWGQGTLVTVSS
VL: QSVLTQPPSASGTPGQRVTISCTGSSSNIGAAYDVHWYQQLPGTAPKLLIYGNNKRPSGVPDRFSGSKSGTSASLAISGLRSEDEADYYCQSYDSSLSGSVFGGGTKLTVLG
notes: the claims call them variable regions; also called C25K23 hIgG; C25K23 hIgG1
B6: C7I7 hIgG1 (antibody, V domains shown)
VH: EVQLLESGGGLVQPGGSLRLSCAASGFTFGNHWMTWVRQAPGKGLEWVSGVSWNGSRTHYADSVKGRFTISRDNSKNTLYLQMNSLRAEDTAVYYCALTGRSGWMRFPNWFDPWGQGTLVTVTS
VL: QSVLTQPPSASGTPGQRVTISCTGSSSNIGAGYDVHWYQQLPGTAPKLLIYGNSNRPSGVPDRFSGSKSGTSASLAISGLRSEDEAAYYCSSYVGSDLVVFGGGTKLTVLG
notes: also called C717-IgG
B7: Variant 2312 (modified C25K23 IgG) (antibody, V domains shown)
VH: EVQLLESGGGLVQPGGSLRLSCAASGFTFSSYWMSWVRQAPGKGLEWVSGVSWNGARTHYADSVKGRFTISRDNSKNTLYLQMNSLRAEDTAVYYCALTGRSGWMRFPNWFDPWGQGTLVTVSS
VL: QSVLTQPPSVSGAPGQRVTISCTGSSSNIGAAYDVHWYQQLPGTAPKLLIYGNNKRPSGVPDRFSGSKSGTSASLAITGLQAEDEADYYCQSYDSSLSGSVFGGGTKLTVLG

Legend:
[1] = target: T4, human activated Protein C (human, UniProt P04070 43-461); experiment: direct ELISA, aPC coated, hIgG1
T4 construct: also called human aPC; hAPC

[2] = target: rabbit activated Protein C (rabbit) (UniProt Q28661); experiment: cell-based or functional assay
[3] = target: rabbit activated Protein C (rabbit) (UniProt Q28661); experiment: direct ELISA, aPC coated, hIgG1
[4] = target: T4, human activated Protein C; experiment: ELISA, hIgG1
[5] = target: rabbit activated Protein C (rabbit) (UniProt Q28661); experiment: ELISA, hIgG1
[6] = target: T4, human activated Protein C; experiment: cell-based or functional assay
[7] = target: T1, dog activated Protein C; experiment: direct ELISA, aPC coated, hIgG1
[8] = target: T1, dog activated Protein C; experiment: ELISA, hIgG1
[9] = target: T2, dog Protein C (zymogen); experiment: direct ELISA, antigen coated
[10] = target: T1, dog activated Protein C; experiment: cell-based or functional assay
[11] = target: T4, human activated Protein C; experiment: Biacore, Fab
[12] = target: T1, dog activated Protein C; experiment: Biacore, Fab
[13] = target: T2, dog Protein C (zymogen); experiment: direct ELISA, dPC coated at 10 ug/ml, Fab at 20 nM, anti-human Fab-HRP, AmplexRed (RFU)
Experimental: (§1) To determine the binding selectivity of these fabs, their binding activities to the proenzyme human PC, to thrombin (FIIa), and to the activated Factor II (FIIa, thrombin), Factor VII (FVIIa), Factor IX (FIXa), and Factor X (FXa) were also assessed by ELISA. Briefly, an ELISA plate was coated with human aPC at 1 ug/ml, mouse PC at 10 ug/ml, dog PC at 10 ug/ml, other coagulation factors (FIIa, FVIIa, FIXa, FXa) at 5-10 ug/ml. Anti-aPC Fabs were added to the wells at 20 nM (1 ug/ml). Bound Fabs were detected by the secondary antibody (anti-human Fab-HRP) followed by HRP substrate AmplexRed.

[14] = target: T5, human Protein C (zymogen) (human, UniProt P04070 43-461); experiment: direct ELISA, antigen coated at 100 ng/well, Fab at 20 nM (1 ug/ml), anti-human Fab-HRP, AmplexRed (RFU)
T5 construct: also called human PC; hPC
Experimental: FIG. 3 depicts a graph characterizing anti-APC Fabs by direct ELISA. An ELISA plate was coated with human PC (hPC), human aPC (hAPC), dog aPC (dAPC), mouse aPC (mAPC) at 100 ng per well. Purified Fabs designate on the X-axis were added to the plate at 20 nM (1 ug/ml). Bound Fab was detected by the secondary antibody (anti-human Fab-HRP) followed by HRP substrate AmplexRed. The purified Fabs preferentially bind to human aPC and, with the exception of Fab R41C17, show little to no binding to human PC.
Antigens were coated directly on ELISA plates. Coating antigens included human PC (plasma-derived), human aPC (recombinant), dog aPC (plasma-derived), and mouse aPC (recombinant) at 100 ng/well in PBS/Ca buffer. After blocking the plate with 5% milk/PBS and washing the plate with PBS-Tween20, soluble Fabs (1 ug/ml, 20 nM) were added to the plate and incubated for 1 h at RT with shaking. Fab binding was detected with anti-human Fab (lambda) antibody-HRP and Amplex red as substrate. […] In contrast, R41C17 binds to both human APC and human PC. Also shown in FIG. 3 is cross-species reactivity of Fabs by ELISA.

[15] = target: T4, human activated Protein C; experiment: direct ELISA, antigen coated, Fab
[16] = target: T1, dog activated Protein C; experiment: direct ELISA, antigen coated, Fab
[17] = target: T3, mouse Protein C (zymogen); experiment: direct ELISA, mPC coated at 10 ug/ml, Fab at 20 nM, anti-human Fab-HRP, AmplexRed (RFU)
Experimental: as §1

[18] = target: T5, human Protein C (zymogen); experiment: direct ELISA, antigen coated at 1 ug/ml, IgG at 20 nM, anti-human IgG-HRP, AmplexRed (RFU)
[19] = target: T4, human activated Protein C; experiment: cell-based or functional assay; remark: listed apart in the source
[20] = target: T4, human activated Protein C; experiment: cell-based or functional assay; remark: listed apart in the source

Binder | EC50 [1] [nM] | Anti-aPC IC50 (nM), Amidolytic activity [2] [nM] | EC50 [3] [nM] | EC50 [4] [nM] | EC50 [5] [nM] | Anti-aPC IC50 (nM), Amidolytic activity [6] [nM] | EC50 [7] [nM] | EC50 [8] [nM] | binding result [9] | Anti-aPC IC50 (nM), Amidolytic activity [10] [nM] | further results
B1 | 0.49 | 24 | 0.6 | 0.5 | 0.6 | 27 |  |  |  |  | 
B2 |  | 25 | 7 |  | 7 |  | 10.9 | 10.9 | no binding | 49 | 
B3 |  |  |  |  |  |  |  |  |  |  | Kd [11]: 1.3 nM; Kd [12]: 1.3 nM; binding result [13]: no binding (tested: 20 nM); binding result [14]: no binding (tested: 20 nM); EC50 [15]: 6.3 nM; EC50 [16]: 3.9 nM; binding result [17]: no binding (tested: 20 nM)
B4 |  |  |  |  |  |  |  |  |  |  | Kd [11]: 2 nM; Kd [12]: 5.2 nM; binding result [13]: no binding (tested: 20 nM); binding result [14]: no binding (tested: 20 nM); EC50 [15]: 4.3 nM; EC50 [16]: 8.2 nM; binding result [17]: no binding (tested: 20 nM)
B5 | 1.25 |  |  | 1.2 |  | 131 | 3.4 | 3.4 | no binding | 692 | binding result [18]: no binding (tested: 20 nM)
B6 | 2.66 | 29 | 2 | 2.7 | 2 | 64 | 2.3 | 2.3 | no binding | 147 | binding result [18]: no binding (tested: 20 nM); aPTT, inhibition of aPC activity at 1 ug/ml IgG (1:1 molar ratio) [19]: ~50%
B7 |  |  |  |  |  |  |  |  |  |  | IC50 (read off the curve), amidolytic activity of human aPC [b] [20]: ~10 nM
